Data reported in US7049292 (dated 2006).

These binders were tested against HLA-DR4 (human) (assay: competition).

First: QPLALEGSLQKRGIVEQ [preproinsulin C22-A5]
Second: DLQVGQVELGGGPGAGSLQPLALE [preproinsulin C4-C27]
The IC50 of the first is 82-fold lower: 400 nM for the first, 33000 nM for the second. The first is the more potent here.

First: GSLQPLALEGSLQKRGIV [preproinsulin C19-A3]
Second: GGGPGAGSLQPLALEGSLQK [preproinsulin C13-C32]
The IC50 of the first is 10-fold lower: 500 nM for the first, 5000 nM for the second.
